Legend:
hPOMC promoter = assay: NHR-promoter luciferase screen, hPOMC promoter; assay type: cell-based, human; details: for Luc. act., normalized to lacZ / Normalized Luc. act., normalized to control: hPOMC promoter, HR/ligand component; for hPOMC promoter reporter activity: transcription factor +/- ligand, control = 1.00
Summary of the method: (§1)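 CV-1 cells were co-transfected with 50 ng NHR (homodimer or NHR/RXR heterodimer), 100 ng promoter-luciferase construct and 50 ng LacZ. Luciferase was normalized to LacZ and to a no-NHR/no-ligand control.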

mAgrp promoter = assay: NHR-promoter luciferase screen, mAgrp promoter; assay type: cell-based, mouse; details: for Results of assays of transcription factor (+/- ligand) with mAgrp: Table 6d, luciferase activity relative to control (control = 1.00); for Luc. act., normalized to lacZ / Normalized Luc. act., normalized to control: mAgrp promoter, HR component with or without ligand; for Normalized Luc. act., normalized to control: relative to control
Summary of the method: as §1

hMDR1 promoter = assay: NHR-promoter luciferase screen, hMDR1 promoter; assay type: cell-based, human; details: for Luc. act., normalized to lacZ / Normalized Luc. act., normalized to control: MDR1 promoter, HR/ligand component; for hMDR1 promoter reporter activity: transcription factor +/- ligand, control = 1.00
Summary of the method: as §1

mADRP promoter = assay: NHR-promoter luciferase screen, mADRP promoter; assay type: cell-based, mouse; details: for Luc. act., normalized to lacZ / Normalized Luc. act., normalized to control: ADRP promoter, HR/ligand component; for mADRP promoter reporter activity: transcription factor +/- ligand, control = 1.00
Summary of the method: as §1

mDio1 promoter = assay: NHR-promoter luciferase screen, mDio1 promoter; assay type: cell-based, mouse; details: for Luc. act., normalized to lacZ / Normalized Luc. act., normalized to control: Dio1, HR component without or with its ligand; for mDio1 promoter reporter activity: transcription factor +/- ligand, control = 1.00
Summary of the method: as §1

hTNFa promoter = assay: NHR-promoter luciferase screen, hTNFa promoter; assay type: cell-based, human; details: for Luc. act., normalized to lacZ / Normalized Luc. act., normalized to control: TNFa promoter, HR component without or with ligand; for hTNFa promoter reporter activity: transcription factor +/- ligand, control = 1.00
Summary of the method: as §1

Molecule | Luc. act., normalized to lacZ (hPOMC promoter) | Normalized Luc. act., normalized to control (hPOMC promoter) | hPOMC promoter reporter activity (hPOMC promoter) | Results of assays of transcription factor (+/- ligand) with mAgrp (mAgrp promoter) | Luc. act., normalized to lacZ (mAgrp promoter) | Normalized Luc. act., normalized to control (mAgrp promoter) | Luc. act., normalized to lacZ (hMDR1 promoter) | Normalized Luc. act., normalized to control (hMDR1 promoter) | hMDR1 promoter reporter activity (hMDR1 promoter) | Luc. act., normalized to lacZ (mADRP promoter) | Normalized Luc. act., normalized to control (mADRP promoter) | mADRP promoter reporter activity (mADRP promoter) | Luc. act., normalized to lacZ (mDio1 promoter) | Normalized Luc. act., normalized to control (mDio1 promoter) | mDio1 promoter reporter activity (mDio1 promoter) | Luc. act., normalized to lacZ (hTNFa promoter) | Normalized Luc. act., normalized to control (hTNFa promoter) | hTNFa promoter reporter activity (hTNFa promoter) | luciferase/LacZ, hPOMC (selected results) (hPOMC promoter; hPOMC promoter-luciferase, NHR +/- ligand, control = 1.0) | luciferase/LacZ, mAgrp (selected results) (mAgrp promoter; mAgrp promoter-luciferase, NHR +/- ligand, control = 1.0)
RXRg: Retinoic X Receptor γ (NR2B3), cDNA driver (protein, UniProt P48443 1-463, looked up) Retinoic acid receptor …: MYGNYSHFMKFPAGYGGSPGHTGSTSMSPSAALSTGKPMDSHPSYTDTPVSAPRTLSAVGTPLNALGSPYRVITSAMGPPSGALAAPPGINLVAPPSSQLNVVNSVSSSEDIKPLPGLPGIGNMNYPSTSPGSLVKHICAICGDRSSGKHYGVYSCEGCKGFFKRTIRKDLIYTCRDNKDCLIDKRQRNRCQYCRYQKCLVMGMKREAVQEERQRSRERAESEAECATSGHEDMPVERILEAELAVEPKTESYGDMNMENSTNDPVTNICHAADKQLFTLVEWAKRIPHFSDLTLEDQVILLRAGWNELLIASFSHRSVSVQDGILLATGLHVHRSSAHSAGVGSIFDRVLTELVSKMKDMQMDKSELGCLRAIVLFNPDAKGLSNPSEVETLREKVYATLEAYTKQKYPEQPGRFAKLLLRLPALRSIGLKCLEHLFFFKLIGDTPIDTFLMEMLETPLQIT | 2.5 | 0.6 | 0.58 | 1.30 | 51.5 | 1.3 | 0.2 | 0.7 | 0.65 | 665.8 | 1.3 | 1.34 | 6.6 | 1.5 | 1.48 | 1025.0 | 1.0 | 1.04 | – | –
TR2: Testicular Orphan Nuclear Receptor 2 (NR2C1), cDNA driver (protein, UniProt P13056 1-603, looked up) Nuclear receptor subfamily 2 …: MATIEEIAHQIIEQQMGEIVTEQQTGQKIQIVTALDHNTQGKQFILTNHDGSTPSKVILARQDSTPGKVFLTTPDAAGVNQLFFTTPDLSAQHLQLLTDNSPDQGPNKVFDLCVVCGDKASGRHYGAVTCEGCKGFFKRSIRKNLVYSCRGSKDCIINKHHRNRCQYCRLQRCIAFGMKQDSVQCERKPIEVSREKSSNCAASTEKIYIRKDLRSPLTATPTFVTDSESTRSTGLLDSGMFMNIHPSGVKTESAVLMTSDKAESCQGDLSTLANVVTSLANLGKTKDLSQNSNEMSMIESLSNDDTSLCEFQEMQTNGDVSRAFDTLAKALNPGESTACQSSVAGMEGSVHLITGDSSINYTEKEGPLLSDSHVAFRLTMPSPMPEYLNVHYIGESASRLLFLSMHWALSIPSFQALGQENSISLVKAYWNELFTLGLAQCWQVMNVATILATFVNCLHNSLQQDKMSTERRKLLMEHIFKLQEFCNSMVKLCIDGYEYAYLKAIVLFSPDHPSLENMEQIEKFQEKAYVEFQDYITKTYPDDTYRLSRLLLRLPALRLMNATITEELFFKGLIGNIRIDSVIPHILKMEPADYNSQIIGHSI | 15.7 | 3.6 | 3.65 | 0.98 | 39.0 | 1.0 | 0.3 | 1.0 | 1.01 | 684.7 | 1.4 | 1.38 | 14.8 | 3.3 | 3.32 | 1038.2 | 1.1 | 1.06 | – | –
HNF4g: Hepatocyte Nuclear Factor γ (NR2A2), cDNA driver (protein, UniProt Q14541 1-408, looked up) Hepatocyte nuclear factor …: MNTTDNGVNCLCAICGDRATGKHYGASSCDGCKGFFRRSIRKSHVYSCRFSRQCVVDKDKRNQCRYCRLRKCFRAGMKKEAVQNERDRISTRRSTFDGSNIPSINTLAQAEVRSRQISVSSPGSSTDINVKKIASIGDVCESMKQQLLVLVEWAKYIPAFCELPLDDQVALLRAHAGEHLLLGATKRSMMYKDILLLGNNYVIHRNSCEVEISRVANRVLDELVRPFQEIQIDDNEYACLKAIVFFDPDAKGLSDPVKIKNMRFQVQIGLEDYINDRQYDSRGRFGELLLLLPTLQSITWQMIEQIQFVKLFGMVKIDNLLQEMLLGGASNDGSHLHHPMHPHLSQDPLTGQTILLGPMSTLVHADQISTPETPLPSPPQGSGQEQYKIAANQASVISHQHLSKQKQL | 5.3 | 1.2 | 1.23 | 0.77 | 30.4 | 0.8 | 0.2 | 0.8 | 0.75 | 511.7 | 1.0 | 1.03 | 15.6 | 3.5 | 3.49 | 859.3 | 0.9 | 0.87 | – | –
TR4: Testicular Orphan Nuclear Receptor 4 (NR2C2), cDNA driver (protein, UniProt P49116 1-596, looked up) Nuclear receptor subfamily 2 …: MTSPSPRIQIISTDSAVASPQRIQIVTDQQTGQKIQIVTAVDASGSPKQQFILTSPDGAGTGKVILASPETSSAKQLIFTTSDNLVPGRIQIVTDSASVERLLGKTDVQRPQVVEYCVVCGDKASGRHYGAVSCEGCKGFFKRSVRKNLTYSCRSNQDCIINKHHRNRCQFCRLKKCLEMGMKMESVQSERKPFDVQREKPSNCAASTEKIYIRKDLRSPLIATPTFVADKDGARQTGLLDPGMLVNIQQPLIREDGTVLLATDSKAETSQGALGTLANVVTSLANLSESLNNGDTSEIQPEDQSASEITRAFDTLAKALNTTDSSSSPSLADGIDTSGGGSIHVISRDQSTPIIEVEGPLLSDTHVTFKLTMPSPMPEYLNVHYICESASRLLFLSMHWARSIPAFQALGQDCNTSLVRACWNELFTLGLAQCAQVMSLSTILAAIVNHLQNSIQEDKLSGDRIKQVMEHIWKLQEFCNSMAKLDIDGYEYAYLKAIVLFSPDHPGLTSTSQIEKFQEKAQMELQDYVQKTYSEDTYRLARILVRLPALRLMSSNITEELFFTGLIGNVSIDSIIPYILKMETAEYNGQITGASL | 50.7 | 11.8 | 11.80 | 2.06 | 81.8 | 2.1 | 0.5 | 1.6 | 1.57 | 1003.3 | 2.0 | 2.02 | 56.0 | 12.6 | 12.55 | 1189.6 | 1.2 | 1.21 | 11.8 | 2.1
RORb: RAR-related Orphan Receptor β (NR1F2), cDNA driver (protein, UniProt Q92753 1-470, looked up) Nuclear receptor ROR-beta: MCENQLKTKADATAQIEVIPCKICGDKSSGIHYGVITCEGCKGFFRRSQQNNASYSCPRQRNCLIDRTNRNRCQHCRLQKCLALGMSRDAVKFGRMSKKQRDSLYAEVQKHQQRLQEQRQQQSGEAEALARVYSSSISNGLSNLNNETSGTYANGHVIDLPKSEGYYNVDSGQPSPDQSGLDMTGIKQIKQEPIYDLTSVPNLFTYSSFNNGQLAPGITMTEIDRIAQNIIKSHLETCQYTMEELHQLAWQTHTYEEIKAYQSKSREALWQQCAIQITHAIQYVVEFAKRITGFMELCQNDQILLLKSGCLEVVLVRMCRAFNPLNNTVLFEGKYGGMQMFKALGSDDLVNEAFDFAKNLCSLQLTEEEIALFSSAVLISPDRAWLIEPRKVQKLQEKIYFALQHVIQKNHLDDETLAKLIAKIPTITAVCNLHGEKLQVFKQSHPEIVNTLFPPLYKELFNPDCATGCK | 2.2 | 0.5 | 0.52 | 1.37 | 54.3 | 1.4 | 0.2 | 0.6 | 0.58 | 685.3 | 1.4 | 1.38 | 6.4 | 1.4 | 1.44 | 1029.5 | 1.0 | 1.05 | – | –
